Measurements as given in US20230220021A1 (UNIVERSITY OF COPENHAGEN, published 2023).
[ ]: non-standard residue; d: D form.

Biological target: T1, (7× His)-PSD-95-PDZ2 wild type (UniProt P78352 160-246)
T1 construct: domain: PDZ2; recombinant from E. coli; also called PSD-95-PDZ2 WT; not shown: 7x His tag
Test: FP competition

T1 sequence (P78352 160-246): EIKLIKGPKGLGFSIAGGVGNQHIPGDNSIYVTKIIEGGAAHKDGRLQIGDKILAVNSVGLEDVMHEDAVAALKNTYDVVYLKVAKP

Binder | Ki | Relative Ki (Ki mut/Ki WT)
cyclo(THLETTVTGDGTPKTIRVTQ[dP]GQ) (SMILES CC[C@H](C)[C@@H]1NC(=O)[C@H]([C@@H](C)O)NC(=O)[C@H](CCCCN)NC(=O)[C@@H]2CCCN2C(=O)[C@H]([C@@H](C)O)NC(=O)CNC(=O)[C@H](CC(=O)O)NC(=O)CNC(=O)[C@H]([C@@H](C)O)NC(=O)[C@H](C(C)C)NC(=O)[C@H]([C@@H](C)O)NC(=O)[C@H]([C@@H](C)O)NC(=O)[C@H](CCC(=O)O)NC(=O)[C@H](CC(C)C)NC(=O)[C@H](Cc2c[nH]cn2)NC(=O)[C@H]([C@@H](C)O)NC(=O)[C@H](CCC(N)=O)NC(=O)CNC(=O)[C@H]2CCCN2C(=O)[C@H](CCC(N)=O)NC(=O)[C@H]([C@@H](C)O)NC(=O)[C@H](C(C)C)NC(=O)[C@H](CCCNC(=N)N)NC1=O) [cyclic nNOS β-hairpin peptide F111V] | 77400 nM | 51.6
cyclo(TELETTFTGDGTPKTIRVTQ[dP]GQ) (SMILES CC[C@H](C)[C@@H]1NC(=O)[C@H]([C@@H](C)O)NC(=O)[C@H](CCCCN)NC(=O)[C@@H]2CCCN2C(=O)[C@H]([C@@H](C)O)NC(=O)CNC(=O)[C@H](CC(=O)O)NC(=O)CNC(=O)[C@H]([C@@H](C)O)NC(=O)[C@H](Cc2ccccc2)NC(=O)[C@H]([C@@H](C)O)NC(=O)[C@H]([C@@H](C)O)NC(=O)[C@H](CCC(=O)O)NC(=O)[C@H](CC(C)C)NC(=O)[C@H](CCC(=O)O)NC(=O)[C@H]([C@@H](C)O)NC(=O)[C@H](CCC(N)=O)NC(=O)CNC(=O)[C@H]2CCCN2C(=O)[C@H](CCC(N)=O)NC(=O)[C@H]([C@@H](C)O)NC(=O)[C@H](C(C)C)NC(=O)[C@H](CCCNC(=N)N)NC1=O) [cyclic nNOS β-hairpin peptide H106E] | 6190 nM | 4.13
cyclo(GHLETTFTGDGTPKTIRVTQ[dP]GQ) (SMILES CC[C@H](C)[C@@H]1NC(=O)[C@H]([C@@H](C)O)NC(=O)[C@H](CCCCN)NC(=O)[C@@H]2CCCN2C(=O)[C@H]([C@@H](C)O)NC(=O)CNC(=O)[C@H](CC(=O)O)NC(=O)CNC(=O)[C@H]([C@@H](C)O)NC(=O)[C@H](Cc2ccccc2)NC(=O)[C@H]([C@@H](C)O)NC(=O)[C@H]([C@@H](C)O)NC(=O)[C@H](CCC(=O)O)NC(=O)[C@H](CC(C)C)NC(=O)[C@H](Cc2c[nH]cn2)NC(=O)CNC(=O)[C@H](CCC(N)=O)NC(=O)CNC(=O)[C@H]2CCCN2C(=O)[C@H](CCC(N)=O)NC(=O)[C@H]([C@@H](C)O)NC(=O)[C@H](C(C)C)NC(=O)[C@H](CCCNC(=N)N)NC1=O) [cyclic nNOS β-hairpin peptide T105G] | 4500 nM | 3
cyclo(THLETTFTGDGTPKTRRVTQ[dP]GQ) (SMILES CC(C)C[C@@H]1NC(=O)[C@H](Cc2c[nH]cn2)NC(=O)[C@H]([C@@H](C)O)NC(=O)[C@H](CCC(N)=O)NC(=O)CNC(=O)[C@H]2CCCN2C(=O)[C@H](CCC(N)=O)NC(=O)[C@H]([C@@H](C)O)NC(=O)[C@H](C(C)C)NC(=O)[C@H](CCCNC(=N)N)NC(=O)[C@H](CCCNC(=N)N)NC(=O)[C@H]([C@@H](C)O)NC(=O)[C@H](CCCCN)NC(=O)[C@@H]2CCCN2C(=O)[C@H]([C@@H](C)O)NC(=O)CNC(=O)[C@H](CC(=O)O)NC(=O)CNC(=O)[C@H]([C@@H](C)O)NC(=O)[C@H](Cc2ccccc2)NC(=O)[C@H]([C@@H](C)O)NC(=O)[C@H]([C@@H](C)O)NC(=O)[C@H](CCC(=O)O)NC1=O) [cyclic nNOS β-hairpin peptide I120R] | 1760 nM | 1.17
cyclo(THLETTFTGDGTPKTYRVTQ[dP]GQ) (SMILES CC(C)C[C@@H]1NC(=O)[C@H](Cc2c[nH]cn2)NC(=O)[C@H]([C@@H](C)O)NC(=O)[C@H](CCC(N)=O)NC(=O)CNC(=O)[C@H]2CCCN2C(=O)[C@H](CCC(N)=O)NC(=O)[C@H]([C@@H](C)O)NC(=O)[C@H](C(C)C)NC(=O)[C@H](CCCNC(=N)N)NC(=O)[C@H](Cc2ccc(O)cc2)NC(=O)[C@H]([C@@H](C)O)NC(=O)[C@H](CCCCN)NC(=O)[C@@H]2CCCN2C(=O)[C@H]([C@@H](C)O)NC(=O)CNC(=O)[C@H](CC(=O)O)NC(=O)CNC(=O)[C@H]([C@@H](C)O)NC(=O)[C@H](Cc2ccccc2)NC(=O)[C@H]([C@@H](C)O)NC(=O)[C@H]([C@@H](C)O)NC(=O)[C@H](CCC(=O)O)NC1=O) [cyclic nNOS β-hairpin peptide I120Y] | 1600 nM | 1.07
cyclo(THLESTFTGDGTPKTIRVTQ[dP]GQ) (SMILES CC[C@H](C)[C@@H]1NC(=O)[C@H]([C@@H](C)O)NC(=O)[C@H](CCCCN)NC(=O)[C@@H]2CCCN2C(=O)[C@H]([C@@H](C)O)NC(=O)CNC(=O)[C@H](CC(=O)O)NC(=O)CNC(=O)[C@H]([C@@H](C)O)NC(=O)[C@H](Cc2ccccc2)NC(=O)[C@H]([C@@H](C)O)NC(=O)[C@H](CO)NC(=O)[C@H](CCC(=O)O)NC(=O)[C@H](CC(C)C)NC(=O)[C@H](Cc2c[nH]cn2)NC(=O)[C@H]([C@@H](C)O)NC(=O)[C@H](CCC(N)=O)NC(=O)CNC(=O)[C@H]2CCCN2C(=O)[C@H](CCC(N)=O)NC(=O)[C@H]([C@@H](C)O)NC(=O)[C@H](C(C)C)NC(=O)[C@H](CCCNC(=N)N)NC1=O) [cyclic nNOS β-hairpin peptide T109S] | 24500 nM | 2.51

The next binders have a lower Ki than those just listed; values first:

Ki | Relative Ki (Ki mut/Ki WT) | Binder
1200 nM | 0.8 | cyclo(THKETTFTGDGTPKTIRVTQ[dP]GQ) (SMILES CC[C@H](C)[C@@H]1NC(=O)[C@H]([C@@H](C)O)NC(=O)[C@H](CCCCN)NC(=O)[C@@H]2CCCN2C(=O)[C@H]([C@@H](C)O)NC(=O)CNC(=O)[C@H](CC(=O)O)NC(=O)CNC(=O)[C@H]([C@@H](C)O)NC(=O)[C@H](Cc2ccccc2)NC(=O)[C@H]([C@@H](C)O)NC(=O)[C@H]([C@@H](C)O)NC(=O)[C@H](CCC(=O)O)NC(=O)[C@H](CCCCN)NC(=O)[C@H](Cc2c[nH]cn2)NC(=O)[C@H]([C@@H](C)O)NC(=O)[C@H](CCC(N)=O)NC(=O)CNC(=O)[C@H]2CCCN2C(=O)[C@H](CCC(N)=O)NC(=O)[C@H]([C@@H](C)O)NC(=O)[C@H](C(C)C)NC(=O)[C@H](CCCNC(=N)N)NC1=O) [cyclic nNOS β-hairpin peptide L107K]
1190 nM | 0.79 | cyclo(TFLETTFTGDGTPKTIRVTQ[dP]GQ) (SMILES CC[C@H](C)[C@@H]1NC(=O)[C@H]([C@@H](C)O)NC(=O)[C@H](CCCCN)NC(=O)[C@@H]2CCCN2C(=O)[C@H]([C@@H](C)O)NC(=O)CNC(=O)[C@H](CC(=O)O)NC(=O)CNC(=O)[C@H]([C@@H](C)O)NC(=O)[C@H](Cc2ccccc2)NC(=O)[C@H]([C@@H](C)O)NC(=O)[C@H]([C@@H](C)O)NC(=O)[C@H](CCC(=O)O)NC(=O)[C@H](CC(C)C)NC(=O)[C@H](Cc2ccccc2)NC(=O)[C@H]([C@@H](C)O)NC(=O)[C@H](CCC(N)=O)NC(=O)CNC(=O)[C@H]2CCCN2C(=O)[C@H](CCC(N)=O)NC(=O)[C@H]([C@@H](C)O)NC(=O)[C@H](C(C)C)NC(=O)[C@H](CCCNC(=N)N)NC1=O) [cyclic nNOS β-hairpin peptide H106F]
1180 nM | 0.79 | cyclo(TYLETTFTGDGTPKTIRVTQ[dP]GQ) (SMILES CC[C@H](C)[C@@H]1NC(=O)[C@H]([C@@H](C)O)NC(=O)[C@H](CCCCN)NC(=O)[C@@H]2CCCN2C(=O)[C@H]([C@@H](C)O)NC(=O)CNC(=O)[C@H](CC(=O)O)NC(=O)CNC(=O)[C@H]([C@@H](C)O)NC(=O)[C@H](Cc2ccccc2)NC(=O)[C@H]([C@@H](C)O)NC(=O)[C@H]([C@@H](C)O)NC(=O)[C@H](CCC(=O)O)NC(=O)[C@H](CC(C)C)NC(=O)[C@H](Cc2ccc(O)cc2)NC(=O)[C@H]([C@@H](C)O)NC(=O)[C@H](CCC(N)=O)NC(=O)CNC(=O)[C@H]2CCCN2C(=O)[C@H](CCC(N)=O)NC(=O)[C@H]([C@@H](C)O)NC(=O)[C@H](C(C)C)NC(=O)[C@H](CCCNC(=N)N)NC1=O) [cyclic nNOS β-hairpin peptide H106Y]
950 nM | 0.63 | cyclo(THLETTFDGDGTPKTIRVTQ[dP]GQ) (SMILES CC[C@H](C)[C@@H]1NC(=O)[C@H]([C@@H](C)O)NC(=O)[C@H](CCCCN)NC(=O)[C@@H]2CCCN2C(=O)[C@H]([C@@H](C)O)NC(=O)CNC(=O)[C@H](CC(=O)O)NC(=O)CNC(=O)[C@H](CC(=O)O)NC(=O)[C@H](Cc2ccccc2)NC(=O)[C@H]([C@@H](C)O)NC(=O)[C@H]([C@@H](C)O)NC(=O)[C@H](CCC(=O)O)NC(=O)[C@H](CC(C)C)NC(=O)[C@H](Cc2c[nH]cn2)NC(=O)[C@H]([C@@H](C)O)NC(=O)[C@H](CCC(N)=O)NC(=O)CNC(=O)[C@H]2CCCN2C(=O)[C@H](CCC(N)=O)NC(=O)[C@H]([C@@H](C)O)NC(=O)[C@H](C(C)C)NC(=O)[C@H](CCCNC(=N)N)NC1=O) [cyclic nNOS β-hairpin peptide T112D]
750 nM | 0.5 | cyclo(THLETTFTGDRTPKTIRVTQ[dP]GQ) (SMILES CC[C@H](C)[C@@H]1NC(=O)[C@H]([C@@H](C)O)NC(=O)[C@H](CCCCN)NC(=O)[C@@H]2CCCN2C(=O)[C@H]([C@@H](C)O)NC(=O)[C@H](CCCNC(=N)N)NC(=O)[C@H](CC(=O)O)NC(=O)CNC(=O)[C@H]([C@@H](C)O)NC(=O)[C@H](Cc2ccccc2)NC(=O)[C@H]([C@@H](C)O)NC(=O)[C@H]([C@@H](C)O)NC(=O)[C@H](CCC(=O)O)NC(=O)[C@H](CC(C)C)NC(=O)[C@H](Cc2c[nH]cn2)NC(=O)[C@H]([C@@H](C)O)NC(=O)[C@H](CCC(N)=O)NC(=O)CNC(=O)[C@H]2CCCN2C(=O)[C@H](CCC(N)=O)NC(=O)[C@H]([C@@H](C)O)NC(=O)[C@H](C(C)C)NC(=O)[C@H](CCCNC(=N)N)NC1=O) [cyclic nNOS β-hairpin peptide G115R]
